This is an account of results in doi:10.1101/2021.01.08.425994 (bioRxiv, 2021).

As a reminder, the Kd is a measure of binding affinity in units of concentration.

The target in the experiment is T1, His-tagged mouse CRY2 D325H PHR domain (residues 1-512) (mouse, UniProt Q9R194 1-512, D325H).
T1 sequence (looked up): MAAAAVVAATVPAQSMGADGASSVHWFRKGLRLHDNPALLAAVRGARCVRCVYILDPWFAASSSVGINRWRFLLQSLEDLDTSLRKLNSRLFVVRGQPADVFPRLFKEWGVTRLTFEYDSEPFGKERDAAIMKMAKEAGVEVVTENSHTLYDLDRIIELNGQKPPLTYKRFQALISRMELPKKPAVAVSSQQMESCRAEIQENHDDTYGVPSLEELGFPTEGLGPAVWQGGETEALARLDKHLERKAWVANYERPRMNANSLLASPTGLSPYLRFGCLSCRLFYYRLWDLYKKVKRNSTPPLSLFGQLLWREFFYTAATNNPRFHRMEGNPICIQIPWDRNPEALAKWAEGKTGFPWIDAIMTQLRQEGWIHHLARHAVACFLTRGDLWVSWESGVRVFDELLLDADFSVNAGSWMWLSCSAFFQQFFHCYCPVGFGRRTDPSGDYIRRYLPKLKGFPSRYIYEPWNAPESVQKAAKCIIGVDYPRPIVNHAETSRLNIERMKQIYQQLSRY
Put plainly: BLI. A general note: Biolayer interferometry detects binding as a change in optical thickness at a sensor tip.

B1: CLOCK:BMAL1 PAS domain core (PAS-AB domain heterodimer), biotinylated (complex)
chain 1: ASEIRQDWKPTFLSNEEFTQLMLEALDGFFLAIMTDGSIIYVSESVTSLLEHLPSDLVDQSIFNFIPEGEHSEVYKILSTHLLESDSLTPEYLKSKNQLEFCCHMLRGTIDPKEPSTYEYVRFIGNFKSLTSVSTSTHNGFEGTIQRTHRPSYEDRVCFVATVRLATPQFIKEMCTVEEPNEEFTSRHSLEWKFLFLDHRAPPIIGYLPFEVLGTSGYDYYHVDDLENLAKCHEHLMQYGKGKSCYYRFLTKGQQWIWLQTHYYITYHQWNSRPEFIVCTHTVVSYAEVRAERRRELGIEESL
chain 2: not shown
As for B1, the Kd was found to be 1800 nM.
